Assay results from patent US5955420, “Rse receptor activation” (Genentech, Inc., dated 1999).

Target: CD4-IgG (human, UniProt P01730)
Experiment: competition in the FBS-mediated CMK11-5 membrane binding assay
Procedure: After a 30 min incubation at room temperature, 1 ml of ice cold assay buffer was added to each tube. Then, the membrane associated radioactivity was collected by centrifugation for 4 min at 15000 g, separated from unbound radioactivity by aspiration of the supernatant fluid and counted in a γ counter.

B1: Rse ligand (Rse-L) in fetal bovine serum, unpurified or Q-Sepharose enriched (ligand)
chain: ANTLLEETKKGNLERECIEELCNKEEAREIFENNPETEYFYPKYLGCLGSFRAGLFTAARLSTNAYPDLRSCVNAISDQCNPLPCNEDGFMTCKDGQATFTCICKSGWQGEKCESDINECKDPVNINGGCSQICENTPGSYHCSCKNGFVMLSNKKDCKDVDECVLKPSICGTAVCKNIPGDFECECAEGYKYNPVSKSCDDVDECAENLCAQLCVNYPGGYSCYCDGKKGFKLAQDQKSCEAVPVCLPLDLDKNYELLYLAEQFVGVVLYLKFRLPETTRFSAEFDFRTYDSEGVILYAESSDHSAWFLIALREGKIEIQFKNEKTTKMTTGGKVINDGLWHMVSVEELEQSISVKIAKEAVMNINKPGSLFKPTNGFLETKVYFAGVPRKMENALIRPINPRLDGCIRGWNLMNQGTSGVKEIIQEKQNKHCLVNVEKGSYYPGTGVAQFSINYKNESNPEAWQINVSLNIRPSAGTGVMLALVSDNTVPFALSLVDSATEKLQDILVSVESMVIGRIEAISLCSDQQTFLEIRVNRNNLELSTQLRKDSFHSEDFQRQFAILDEAMKGTVVTYLGGLPDVPFSATPVNAFYQGCMEVNINGVQVDLDEAISKHNDIRAHSCPSVWQKTKHT
B1: no binding.
